Source: paper PMC12102759

B1: ICA1L peptide 451-466 (Islet cell autoantigen 1-like protein), 16-mer library wild type / NSP16 (ORF1ab Nsp16, residues 6799-7088) (parent)
chain 1: QDMSAWFNLFADLDPL
chain 2: SSQAWQPGVAMPNLYKMQRMLLEKCDLQNYGDSATLPKGIMMNVAKYTQLCQYLNTLTLAVPYNMRVIHFGAGSDKGVAPGTAVLRQWLPTGTLLVDSDLNDFVSDADSTLIGDCATVHTANKWDLIISDMYDPKTKNVTKENDSKEGFFTYICGFIQQKLALGGSVAIKITEHSWNADLYKLMGHFAWWTAFVTNVNASSSEAFLIGCNYLGKPREQIDGYVMHANYIFWRNTNPIQLSSYSLFDMSKFPLKLRGTAVMSLKEGQINDMILSLLSKGRLIIRENNRVVI
B2: MBOAT1 peptide 17-32 (Lysophospholipid acyltransferase 1), 16-mer library wild type / NSP3 ADRP (ORF1ab Nsp3b ADRP, residues 1023-1192) (parent)
chain 1: STYLHPLSELLGIPLD
chain 2: not shown

Variants of: B1
Conditions: with NSP16 (ORF1ab Nsp16, residues 6799-7088); bait immobilised on MaxiSorp plates (10 µg), library pre-cleared on GST, 2 h binding at 4 °C, five washes; one round per day, days 1-4; value from days 2 and 3; keep out of graded; scale: average fractional NGS count over selection days 2 and 3

Screen value of substitutions, site by site:
chain 1 D14: L 6.11e-05 | R 8.06e-05 | A 3.47e-05 | S 6.51e-05 | G 1.57e-05 | F 1.57e-05 | N 6.07e-05 | H 0
chain 1 L16: N 2.43e-05 | A 6.04e-05 | S 5.17e-05 | D 3.18e-05 | F 2.69e-05
chain 1 M3: A 1.55e-05
chain 1 A11: D 0 | S 2.43e-05 | F 1.35e-05 | W 0
chain 1 L9: W 7.05e-05 | A 0 | T 3.99e-05 | I 3.31e-05
chain 1 F10: H 0 | R 0
chain 1 F7: V 5.76e-05 | R 0 | M 7.76e-05 | S 3.52e-05
chain 1 D12: Q 5.82e-05 | P 3.33e-05 | N 1.88e-05 | G 3.31e-05
chain 1 P15: W 2.45e-05 | E 0 | L 3.43e-05 | Y 5.19e-05 | F 0 | A 1.57e-05
chain 1 W6: P 0 | V 0
chain 1 A5: L 1.55e-05 | S 3.33e-05 | H 2.76e-05 | G 6.16e-05
chain 1 S4: M 6.83e-05 | D 6.54e-05 | A 0 | V 0
chain 1 N8: S 2.43e-05 | D 6.98e-05 | Q 5.42e-05
chain 1 D2: E 0

Variants of: B2
Conditions: with NSP3 ADRP (ORF1ab Nsp3b ADRP, residues 1023-1192); bait immobilised on MaxiSorp plates (10 µg), library pre-cleared on GST, 2 h binding at 4 °C, five washes; one round per day, days 1-4; value from days 2 and 3; keep out of graded; scale: average fractional NGS count over selection days 2 and 3

Screen value: each site, then its substitutions
chain 1 H5: M 0 | S 5.25e-05 | I 0 | L 0 | Q 0 | N 0.0049
chain 1 L15: V 0.000529 | E 0 | Y 0.000938 | T 9.33e-05 | M 0.000121 | P 0 | W 8.57e-05 | Q 0 | A 0 | I 0.000505
chain 1 L11: A 8.96e-05 | S 3.31e-05 | G 7.04e-06 | I 0.000109 | W 0.0297 | N 2.27e-05 | R 4.2e-05 | H 0 | Y 0.00171 | M 1.65e-05 | Q 0
chain 1 S1: M 9.76e-05 | E 0.00035 | Q 0.000187 | I 0.000426 | N 0.000536 | D 0.000236 | A 0.000215 | L 0.000154 | F 0.000157 | H 0.000511 | G 0.00039 | P 0.000375
chain 1 P14: E 7.55e-05 | S 1.48e-05 | R 0 | N 3.9e-05 | I 2.27e-05 | G 0.000153 | D 0.000131 | M 0.00294 | Q 3.28e-05 | F 0 | T 0.000186 | Y 1.08e-05
chain 1 E9: M 0 | L 0 | Y 0 | N 0 | I 0 | T 0 | H 0 | R 0 | G 0 | V 0 | S 0
chain 1 I13: N 3.03e-05 | T 3.35e-05 | A 5.81e-05 | D 0 | Q 0.00199 | H 8.18e-05 | Y 0.00165 | V 3.18e-05 | W 0.00073 | K 0 | R 1.08e-05 | F 0.00253 | L 0.00192
chain 1 L7: A 0 | I 0 | M 0
chain 1 L10: R 0 | H 3e-05 | Q 0 | M 0.000281 | T 0 | I 1.63e-05 | F 0.00233 | G 0 | K 0 | V 0 | N 1.09e-05 | S 4.6e-05 | Y 0.157
chain 1 L4: H 0.000101 | F 0.000245 | E 0 | N 0 | A 1.65e-05 | S 0 | M 8.68e-05 | P 7.55e-05 | W 0.000705 | R 0 | Y 0.000191 | D 0 | V 0.000192
chain 1 G12: A 0.00306 | S 0.000443 | M 0.000127 | H 0.000369 | W 3.64e-05 | I 5.57e-05 | V 0 | P 5.99e-05 | Q 0.000576 | N 5.25e-05 | D 0
